T1: CCCH-type zinc finger antiviral protein (rat)
T1 sequence (Q8K3Y6 2-776, looked up): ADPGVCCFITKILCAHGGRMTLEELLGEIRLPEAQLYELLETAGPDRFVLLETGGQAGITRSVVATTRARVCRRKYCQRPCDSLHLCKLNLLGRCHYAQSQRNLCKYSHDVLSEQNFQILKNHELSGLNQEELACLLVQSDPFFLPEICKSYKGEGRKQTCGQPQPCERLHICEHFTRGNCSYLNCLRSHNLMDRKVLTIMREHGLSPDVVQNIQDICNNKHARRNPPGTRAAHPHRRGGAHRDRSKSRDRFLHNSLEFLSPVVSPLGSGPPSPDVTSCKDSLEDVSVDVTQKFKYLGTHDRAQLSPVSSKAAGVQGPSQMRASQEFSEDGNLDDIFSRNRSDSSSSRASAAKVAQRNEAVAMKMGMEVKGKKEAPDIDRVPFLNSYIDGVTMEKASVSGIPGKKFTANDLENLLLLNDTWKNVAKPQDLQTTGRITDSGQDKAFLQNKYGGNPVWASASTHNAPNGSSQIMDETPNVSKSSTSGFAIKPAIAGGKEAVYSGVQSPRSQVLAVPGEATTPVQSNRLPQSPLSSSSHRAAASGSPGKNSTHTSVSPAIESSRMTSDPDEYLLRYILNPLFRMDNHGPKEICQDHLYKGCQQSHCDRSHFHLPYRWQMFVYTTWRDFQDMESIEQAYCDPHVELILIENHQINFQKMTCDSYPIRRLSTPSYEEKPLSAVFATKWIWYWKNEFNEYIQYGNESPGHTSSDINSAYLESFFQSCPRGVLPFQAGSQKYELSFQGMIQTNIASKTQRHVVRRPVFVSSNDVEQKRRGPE

B1: scFv 3H2-1 (scFv)
scFv: MAEVQLVESGGSLVKPGGSLRLSCAASGFTFSNYSMNWVRQAPGKGLEWISSISGSSRYIYYADFVKGRFTISRDNATNSLYLQMNSLRAEDTAVYYCVRPIAVSDYWGRGTLVTVSSGGGGSGGGGSGGGGSQSVLTQPASVSGSPGQSITISCAGTSSDVGGYNYVSWYQQHPGKAPKLMIYEDSKRPSGVSNRFSGSKSGNTASLTISGLQAEDEADYYCQTYDGSRAVFGGGTKLAVLGAAAEQKLISEEDLNGAA
notes: also called intracellular antibody 3H2-1; intrabody 3H2-1; not shown: C-terminal Myc tag and 6xHis tag from vector pET23NN
B2: 5H4-VH (other)
VH: MAEVQLVESGGSLVKPGGSLRLSCAASGFTFSNYSMNWVRQAPGKGLEWISSISGSSRYIYYADFVKGRFTISRDNATNSLYLQMNSLRAEDTAVYYCVRDGGLREGFDCWGRGTLVTVSSAAAEQKLISEEDLNGAA
notes: Single human-derived VH domain (truncated scFv, VH only) on the 13R4 framework; produced in E. coli, immobilised on nickel beads; also called 5H4-VH fragment; intracellular antibody 5H4-VH; not shown: C-terminal Myc tag and 6xHis tag from vector pET23NN

Tests used:
[1] = biological target: T2, ATP-binding cassette sub-family F member 1 (rat, UniProt Q6MG08 1-839); experiment: IP of RBL-2H3 lysate on nickel beads, MS/MS ProtScore
T2 construct: Endogenous protein from lysates of the rat mast cell line RBL-2H3; also called ABCF1; ABCF1 protein
Method: (§1) They were used to immunoprecipitate protein lysates from RBL-2H3 cells stimulated or not beforehand via the FcεRI. After the immunoprecipitations, the beads were washed in low stringency conditions in order to preserve low affinity bindings.
(§2) After digestion with trypsin, the bands were analysed by mass spectrometry MS/MS using the MALDI-TOF (matrix-assisted laser desorption/ionization time of flight) technique.
(§3) The Mass spectrometer which was used is composed of a laser which ionises previously digested peptides; an analyser which measures the mass/charge (m/z) ratios of the ionised peptides as a function of their flight time; and a detector which records the number of ions for each given m/z ratio. The obtained spectra of m/z ratios allow the identification of peptides and thus proteins present in the samples, by interrogating the Genebank rat database, as well as the mouse database for comparison (the mice Genebank data being more complete). A confidence index or ProtScore is attributed for each protein as a function of the number of identified peptides which are part of its sequence and of the nature of these peptides (composition, size). A ProtScore higher than 3 corresponds to 0.1% probability of identifying a false positive, in other words the probability that this protein is present is 99.9%.

CTP synthase = biological target: T3, CTP synthase (rat); experiment: as above
T3 construct: Endogenous protein from RBL-2H3 (rat) lysate
Method: as §1, §2, §3

[2] = biological target: T1, CCCH-type zinc finger antiviral protein; experiment: as above
Method: as §1, §2, §3

[3] = biological target: T4, fragile X mental retardation 1 (rat); experiment: as above
T4 construct: Endogenous protein from RBL-2H3 (rat) lysate
Method: as §1, §2, §3

[4] = biological target: T5, lysine (K)-specific demethylase 1 (rat); experiment: as above
T5 construct: Endogenous protein from RBL-2H3 (rat) lysate
Method: as §1, §2, §3

[5] = biological target: T6, guanine nucleotide binding protein-like 2 (rat); experiment: as above
T6 construct: Endogenous protein from RBL-2H3 (rat) lysate
Method: as §1, §2, §3

[6] = biological target: T7, metastasis associated 1 family, member 2 (rat); experiment: as above
T7 construct: Endogenous protein from RBL-2H3 (rat) lysate
Method: as §1, §2, §3

rCG30986, isoform CRA_a = biological target: T8, rCG30986, isoform CRA_a (rat); experiment: as above
T8 construct: Endogenous protein from RBL-2H3 (rat) lysate
Method: as §1, §2, §3

[7] = biological target: T9, PREDICTED: similar to myosin IG (rat); experiment: IP of RBL-2H3 lysate on nickel beads, MS/MS ProtScore; 2nd value
T9 construct: Endogenous protein from RBL-2H3 (rat) lysate
Method: as §1, §2, §3

[8] = biological target: T10, kinesin family member 20A (rat); experiment: as above
T10 construct: Endogenous protein from RBL-2H3 (rat) lysate
Method: as §1, §2, §3

[9] = biological target: T11, adaptor-related protein complex 2, alpha 1 subunit (rat); experiment: as above
T11 construct: Endogenous protein from RBL-2H3 (rat) lysate
Method: as §1, §2, §3

vesicle docking protein [10] = biological target: T12, vesicle docking protein (rat); experiment: as above
T12 construct: Endogenous protein from RBL-2H3 (rat) lysate; a separate GenBank entry from gi 9507177
Method: as §1, §2, §3

[11] = biological target: T9, PREDICTED: similar to myosin IG; experiment: IP of RBL-2H3 lysate on nickel beads, MS/MS ProtScore; 1st value
Method: as §1, §2, §3

[12] = biological target: T10, kinesin family member 20A; experiment: as above
Method: as §1, §2, §3

[13] = biological target: T11, adaptor-related protein complex 2, …; experiment: as above
Method: as §1, §2, §3

vesicle docking protein [14] = biological target: T12, vesicle docking protein; experiment: as above
Method: as §1, §2, §3

T12 sequence (P41542 whole entry): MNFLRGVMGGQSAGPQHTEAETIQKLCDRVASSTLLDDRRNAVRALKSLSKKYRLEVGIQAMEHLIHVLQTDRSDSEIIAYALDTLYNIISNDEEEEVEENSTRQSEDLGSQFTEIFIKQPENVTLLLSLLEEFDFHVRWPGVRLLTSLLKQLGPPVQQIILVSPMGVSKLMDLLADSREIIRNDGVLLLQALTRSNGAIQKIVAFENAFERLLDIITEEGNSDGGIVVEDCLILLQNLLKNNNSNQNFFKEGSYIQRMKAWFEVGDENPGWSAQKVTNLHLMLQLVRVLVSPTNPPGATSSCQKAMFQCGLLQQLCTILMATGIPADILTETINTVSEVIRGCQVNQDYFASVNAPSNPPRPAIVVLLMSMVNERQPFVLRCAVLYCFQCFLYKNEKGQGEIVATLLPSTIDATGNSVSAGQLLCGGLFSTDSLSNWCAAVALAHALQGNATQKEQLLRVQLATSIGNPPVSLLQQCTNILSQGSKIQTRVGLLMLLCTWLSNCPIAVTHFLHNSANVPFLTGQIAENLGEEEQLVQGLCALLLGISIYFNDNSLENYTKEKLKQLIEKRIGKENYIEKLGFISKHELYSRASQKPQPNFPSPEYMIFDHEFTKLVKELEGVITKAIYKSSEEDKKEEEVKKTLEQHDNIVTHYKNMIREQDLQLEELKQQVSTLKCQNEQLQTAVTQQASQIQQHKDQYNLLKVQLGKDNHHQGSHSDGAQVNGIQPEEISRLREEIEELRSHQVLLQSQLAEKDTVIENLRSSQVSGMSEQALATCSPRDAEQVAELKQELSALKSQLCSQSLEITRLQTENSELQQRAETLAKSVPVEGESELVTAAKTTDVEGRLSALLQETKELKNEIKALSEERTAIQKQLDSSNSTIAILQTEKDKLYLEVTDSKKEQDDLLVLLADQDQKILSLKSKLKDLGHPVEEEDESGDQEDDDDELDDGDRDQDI
T2 sequence (Q6MG08 whole entry): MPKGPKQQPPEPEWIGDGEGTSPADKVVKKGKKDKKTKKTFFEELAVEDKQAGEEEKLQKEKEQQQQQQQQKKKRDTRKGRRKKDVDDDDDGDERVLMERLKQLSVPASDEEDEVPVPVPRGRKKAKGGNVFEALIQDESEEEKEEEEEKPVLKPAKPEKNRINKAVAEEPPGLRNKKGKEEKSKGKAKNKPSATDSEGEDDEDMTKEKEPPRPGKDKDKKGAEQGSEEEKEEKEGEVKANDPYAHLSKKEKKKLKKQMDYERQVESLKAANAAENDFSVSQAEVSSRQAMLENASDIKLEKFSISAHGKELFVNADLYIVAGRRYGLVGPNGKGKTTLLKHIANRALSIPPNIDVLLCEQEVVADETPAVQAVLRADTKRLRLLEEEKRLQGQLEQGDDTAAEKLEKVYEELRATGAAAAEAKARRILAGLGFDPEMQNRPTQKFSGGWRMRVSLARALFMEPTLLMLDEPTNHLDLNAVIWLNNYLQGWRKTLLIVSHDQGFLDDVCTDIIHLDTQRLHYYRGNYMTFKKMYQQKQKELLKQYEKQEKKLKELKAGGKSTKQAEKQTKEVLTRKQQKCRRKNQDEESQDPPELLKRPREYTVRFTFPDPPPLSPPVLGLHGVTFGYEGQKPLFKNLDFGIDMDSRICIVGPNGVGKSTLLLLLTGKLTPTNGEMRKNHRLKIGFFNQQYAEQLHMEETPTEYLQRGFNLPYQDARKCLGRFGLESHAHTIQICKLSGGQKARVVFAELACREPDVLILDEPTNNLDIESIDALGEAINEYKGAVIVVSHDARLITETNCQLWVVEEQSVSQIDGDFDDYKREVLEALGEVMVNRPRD

Binder	Protscore IP [1]	Protscore IP (CTP synthase)	Protscore IP [2]	Protscore IP [3]	Protscore IP [4]	Protscore IP [5]	Protscore IP [6]	Protscore IP (rCG30986, isoform CRA_a)	Protscore IP [7]	Protscore IP [8]	Protscore IP [9]	Protscore IP (vesicle docking protein [10])	Protscore IP [11]	Protscore IP [12]	Protscore IP [13]	Protscore IP (vesicle docking protein [14])
B1	51	7	4	4	10	10	4	10	–	–	–	–	–	–	–	–
B2	–	–	–	–	–	–	–	–	20	10	6	5	8	8	15	8
